# Data as given in patent US20250051465A1 (published 2025).
# T1: human LEPR extracellular domain expressed with a C-terminal mouse IgG2a Fc tag (hLEPR.mFc) (human)
# T1 construct: also called dimeric human LEPR
# T1 chain: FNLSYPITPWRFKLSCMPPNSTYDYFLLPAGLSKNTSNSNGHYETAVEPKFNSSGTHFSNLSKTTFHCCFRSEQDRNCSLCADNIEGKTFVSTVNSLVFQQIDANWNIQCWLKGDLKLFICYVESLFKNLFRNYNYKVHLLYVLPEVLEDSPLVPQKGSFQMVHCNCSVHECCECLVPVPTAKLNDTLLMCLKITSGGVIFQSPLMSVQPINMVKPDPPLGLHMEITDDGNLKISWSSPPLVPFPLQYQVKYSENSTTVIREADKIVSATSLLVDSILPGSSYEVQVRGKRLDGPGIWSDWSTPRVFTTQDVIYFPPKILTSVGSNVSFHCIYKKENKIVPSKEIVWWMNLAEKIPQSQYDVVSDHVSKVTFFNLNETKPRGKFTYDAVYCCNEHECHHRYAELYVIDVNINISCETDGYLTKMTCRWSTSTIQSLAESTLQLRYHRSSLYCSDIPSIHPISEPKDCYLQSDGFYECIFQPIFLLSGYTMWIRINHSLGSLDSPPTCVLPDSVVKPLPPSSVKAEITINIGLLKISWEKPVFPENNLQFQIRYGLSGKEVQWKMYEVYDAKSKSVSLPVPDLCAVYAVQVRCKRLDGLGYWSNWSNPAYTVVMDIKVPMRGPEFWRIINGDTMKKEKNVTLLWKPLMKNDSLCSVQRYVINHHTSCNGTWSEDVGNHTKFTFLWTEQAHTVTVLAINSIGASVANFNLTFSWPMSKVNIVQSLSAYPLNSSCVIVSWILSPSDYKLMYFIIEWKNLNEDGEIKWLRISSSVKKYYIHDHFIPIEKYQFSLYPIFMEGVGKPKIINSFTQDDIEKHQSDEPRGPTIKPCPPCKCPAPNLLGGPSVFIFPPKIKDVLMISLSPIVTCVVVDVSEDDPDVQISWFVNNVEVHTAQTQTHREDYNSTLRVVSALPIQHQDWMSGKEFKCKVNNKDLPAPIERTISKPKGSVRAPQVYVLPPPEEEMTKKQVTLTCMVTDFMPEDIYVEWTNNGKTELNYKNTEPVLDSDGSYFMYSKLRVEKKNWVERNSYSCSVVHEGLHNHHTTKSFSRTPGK
# B1: H4H18445P2 (antibody, human IgG4, V domains shown)
# VH: QVQLQESGPGLVKPSQTLSLTCTVSGGSISSGGDYWSWIRQLPGKGLEWIGYIYYSGSAYYNPSLKSRGTISIDTSKNQFSLKLTSVTAADTAVYFCVKLRFLEWFLGGWFGPWGQGTLVTVSS
# VL: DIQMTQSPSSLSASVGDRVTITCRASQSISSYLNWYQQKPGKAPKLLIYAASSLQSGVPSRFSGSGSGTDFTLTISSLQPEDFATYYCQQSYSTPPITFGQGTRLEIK
# notes: Fully human antibody with human IgG4 Fc (H4H prefix)
# B2: H4H18449P2 (antibody, human IgG4, V domains shown)
# VH: EVQLVESGGGLVQPGGSLRLSCVASGFTFNKYDMHWVRQTTGKGLEWVSGIDTDGDTYYPGSVKGRFTISRENAENSLYLQMNGLRVGDTAVYYCARWPWSGFYGAFDIWGQGTMVTVSS
# VL: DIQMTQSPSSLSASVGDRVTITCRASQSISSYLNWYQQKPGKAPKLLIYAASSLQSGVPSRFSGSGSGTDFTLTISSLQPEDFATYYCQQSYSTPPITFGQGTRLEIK
# notes: as for B1
# B3: H4H18438P2 (antibody, human IgG4, V domains shown)
# VH: QVQLVESGGGVVQPGRSLRLSCAASGFSFNTYGMHWVRQAPGKGLEWVTIIWYDGSIKYYADSVKGRFTISRDNSKNTLYLQMNSLRAEDTAVYYCARGGYSGYLYFDYWGQGTLVTVSS
# VL: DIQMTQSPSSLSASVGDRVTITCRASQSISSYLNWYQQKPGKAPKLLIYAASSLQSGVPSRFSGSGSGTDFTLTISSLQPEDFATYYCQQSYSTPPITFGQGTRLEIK
# notes: as for B1
# B4: H4H18417P2 (antibody, human IgG4, V domains shown)
# VH: QVQLVESGGGVVQPGRSLRLSCAASGFTFSTYGMHWVRQAPGKGLEWVSVISYDESNKYYADSVKGRFTISRDNSKNALYLQMNSLRNEDTAVYYCARDRPFGLVTGWFDPWGQGTLVTVSS
# VL: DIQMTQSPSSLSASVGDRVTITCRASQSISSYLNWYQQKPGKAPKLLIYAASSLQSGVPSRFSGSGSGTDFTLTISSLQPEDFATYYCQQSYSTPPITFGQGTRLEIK
# notes: as for B1
# B5: H4H16650P2 (antibody, human IgG4, V domains shown)
# VH: QVQLVESGGGVVQPGKSLRLSCVASGFTFSSDAMYWVRQAPGKGLEWVAVIYYDGNYQYYEDSVKGRFTISRDNSQNTLDLQMNSLRVDDTAVYFCARLNWDYWYLDLWGRGTLVTVSS
# VL: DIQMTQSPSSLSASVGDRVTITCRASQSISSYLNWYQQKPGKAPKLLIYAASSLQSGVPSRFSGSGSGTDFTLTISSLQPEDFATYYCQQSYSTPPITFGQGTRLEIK
# notes: as for B1
# B6: H4H16679P2 (antibody, human IgG4, V domains shown)
# VH: QVQLVESGGGVVQPGRSLRLSCTASGFTFSSYAMYWVRQAPGKGLEWVSVIYYDGSYKYYADSVKGRFTISRDNSKNTLYLQMDSLRAEDTAVYYCASYNWNYWYFDFWGRGTLVTVSS
# VL: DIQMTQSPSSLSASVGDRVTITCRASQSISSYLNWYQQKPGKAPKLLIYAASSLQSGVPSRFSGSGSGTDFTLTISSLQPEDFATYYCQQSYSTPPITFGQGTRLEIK
# notes: as for B1
# B7: H4H17321P2 (antibody, human IgG4, V domains shown)
# VH: QVQLVESGGGVVQPGRSLRLSCEASGFSSSDNAMYWVRQAPGKGLEWVSVIYHDGSYKYYEDSVKGRFTIARDNSKNTLYLQMNSLRAEDTAVYYCARYNWNHWYFDVWGRGTLVTVSS
# VL: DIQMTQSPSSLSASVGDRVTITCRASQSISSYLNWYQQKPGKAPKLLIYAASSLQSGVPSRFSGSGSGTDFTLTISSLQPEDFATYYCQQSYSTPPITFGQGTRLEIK
# notes: as for B1
# B8: H4H17319P2 (antibody, human IgG4, V domains shown)
# VH: QVQLVESGGSVVQPGRSLRLSCAASGFTFSTYAMYWVRQTPGKGLEWVAVLYSDGSNKYYIDSVKGRFTISRDTSTNTLYLQMSSLRADDSALYYCARLNWDYWYFDLWGRGTLVTVSS
# VL: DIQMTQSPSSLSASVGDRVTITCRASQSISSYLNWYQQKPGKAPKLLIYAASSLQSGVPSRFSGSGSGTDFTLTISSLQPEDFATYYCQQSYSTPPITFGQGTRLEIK
# notes: as for B1
# B9: H4H18446P2 (antibody, human IgG4, V domains shown)
# VH: EVQLVESGGGLVQPGGSLRLSCAASGFTFSNYGMTWVRQAPGKGLEWVSAITGGGGSTYYSNSVKGRFTISRDNSKNTVYLRMNSVRAEDTAVYYCAKYKWNFVDDWGQGTTVTVSS
# VL: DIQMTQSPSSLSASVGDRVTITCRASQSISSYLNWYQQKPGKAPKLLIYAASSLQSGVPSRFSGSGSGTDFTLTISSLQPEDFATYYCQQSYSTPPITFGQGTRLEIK
# notes: as for B1
# Target: T2, human LEPR extracellular domain expressed with a C-terminal myc-myc-hexahistidine tag (hLEPR.mmh) (human, UniProt P48357 22-839)
# T2 construct: also called human LEPR-MMH; monomeric human LEPR
# Experiment: SPR, captured mAb, 37C
# Experimental: (§1) Equilibrium dissociation constants (KD values) for LEPR binding to purified anti-LEPR monoclonal antibodies were determined using a real-time surface plasmon resonance biosensor using a Biacore 4000 instrument. All binding studies were performed in 10 mM HEPES, 150 mM NaCl, 3 mM EDTA, and 0.05% v/v Surfactant Tween-20, pH 7.4 (HBS-ET) running buffer at 25° C. and 37° C. The Biacore sensor surface was first derivatized by amine coupling with a monoclonal mouse anti-human Fc antibody (GE, #BR-1008-39) to capture anti-LEPR monoclonal antibodies. […] Kinetic association (kₐ) and dissociation (kd) rate constants were determined by fitting the real-time binding sensorgrams to a 1:1 binding model with mass transport limitation using Scrubber 2.0c curve-fitting software. Binding dissociation equilibrium constants (KD) and dissociative half-lives (t½) were calculated from the kinetic rate constants as: […]
Binder,100 nM hLEPR-MMH Bound (RU),Kd,koff,kon,t½
B1,38 RU,326 nM,0.0168 s⁻¹,51300 M⁻¹ s⁻¹,0.7 min
B2,73 RU,20.7 nM,0.000815 s⁻¹,39400 M⁻¹ s⁻¹,14 min
B3,32 RU,170 nM,0.00576 s⁻¹,33800 M⁻¹ s⁻¹,2 min
B4,22 RU,233 nM,0.018 s⁻¹,77000 M⁻¹ s⁻¹,0.6 min
B5,77 RU,19.8 nM,0.000958 s⁻¹,48500 M⁻¹ s⁻¹,12 min
B6,61 RU,21.9 nM,0.000842 s⁻¹,38400 M⁻¹ s⁻¹,14 min
B7,61 RU,14.8 nM,0.000438 s⁻¹,29500 M⁻¹ s⁻¹,26 min
B8,44 RU,96.3 nM,0.00341 s⁻¹,35400 M⁻¹ s⁻¹,3.4 min
B9,21 RU,121 nM,0.00256 s⁻¹,21200 M⁻¹ s⁻¹,4.5 min

# Target: T3, Macaca fascicularis LEPR extracellular domain expressed with a C-terminal myc-myc-hexahistidine tag … (Macaca fascicularis, UniProt Q9MYL0 22-837 (rhesus entry))
# T3 construct: also called mfLEP.MMH
# Experiment: SPR, captured mAb, 37C
# Experimental: as §1
Binder,100 nM mfLEPR.MMH Bound (RU),Kd,koff,kon,t½
B1,48 RU,264 nM,0.019 s⁻¹,71700 M⁻¹ s⁻¹,0.6 min
B4,28 RU,217 nM,0.0263 s⁻¹,122000 M⁻¹ s⁻¹,0.4 min
B5,134 RU,5.76 nM,0.0007 s⁻¹,122000 M⁻¹ s⁻¹,16 min
B6,104 RU,10.4 nM,0.000677 s⁻¹,64900 M⁻¹ s⁻¹,17 min
B7,143 RU,5.18 nM,0.000257 s⁻¹,49700 M⁻¹ s⁻¹,45 min
B8,113 RU,60.1 nM,0.00324 s⁻¹,53900 M⁻¹ s⁻¹,3.6 min
B9,30 RU,140 nM,0.00354 s⁻¹,25300 M⁻¹ s⁻¹,3.3 min

# Target: T1, human LEPR extracellular domain …
# Experiment: SPR, captured mAb, 37C
# Experimental: as §1
Binder,100 nM hLEPR-mFc Bound (RU),Kd,koff,kon,t½
B1,104 RU,3.89 nM,0.000608 s⁻¹,156000 M⁻¹ s⁻¹,19 min
B2,148 RU,1.26 nM,0.000168 s⁻¹,133000 M⁻¹ s⁻¹,69 min
B3,82 RU,8.53 nM,0.000598 s⁻¹,70200 M⁻¹ s⁻¹,19 min
B4,111 RU,5.64 nM,0.00105 s⁻¹,185000 M⁻¹ s⁻¹,11 min
B5,145 RU,1.79 nM,0.00028 s⁻¹,157000 M⁻¹ s⁻¹,41 min
B6,116 RU,2.56 nM,0.00031 s⁻¹,121000 M⁻¹ s⁻¹,37 min
B7,110 RU,3.15 nM,0.000174 s⁻¹,55300 M⁻¹ s⁻¹,66 min
B8,100 RU,7.66 nM,0.000652 s⁻¹,85100 M⁻¹ s⁻¹,18 min
B9,34 RU,12.8 nM,0.000548 s⁻¹,42700 M⁻¹ s⁻¹,21 min

# Target: extracellular domain of Macaca fascicularis LEPR fused with the transmembrane and cytosolic domains of human … (Macaca fascicularis; human, UniProt P48357 840-1165)
# Experiment: cell-based or functional assay
# extracellular domain of Macaca fascicularis LEPR fused with the transmembrane and cytosolic domains of human …, sequence (P48357 840-1165, form in doubt): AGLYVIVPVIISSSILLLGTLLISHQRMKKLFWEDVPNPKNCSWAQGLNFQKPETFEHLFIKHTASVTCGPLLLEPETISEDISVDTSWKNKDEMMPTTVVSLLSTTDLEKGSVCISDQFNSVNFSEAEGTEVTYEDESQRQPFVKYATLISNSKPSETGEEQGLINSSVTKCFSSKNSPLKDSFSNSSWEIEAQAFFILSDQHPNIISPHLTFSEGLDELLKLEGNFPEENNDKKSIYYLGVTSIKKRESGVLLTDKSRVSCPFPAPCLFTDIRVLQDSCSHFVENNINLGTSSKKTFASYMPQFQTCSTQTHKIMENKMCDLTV
Binder,% Activation,"EC50, STAT3-Luc reporter, IMR-32/STAT3-Luc/MfLEPR cells"
B5,82%,0.266 nM
B6,80%,0.249 nM
B7,78%,0.368 nM
B8,76%,0.365 nM

# Target: mouse LEPR extracellular domain expressed with a C-terminal myc-myc-hexahistidine tag (mLEPR.mmh) (mouse, UniProt P48356 22-839)
# Experiment: SPR, captured mAb, 25C and 37C
# mouse LEPR extracellular domain expressed with a C-terminal myc-myc-hexahistidine tag (mLEPR.mmh), sequence (P48356 other isoform, or with tags, fused parts or gaps): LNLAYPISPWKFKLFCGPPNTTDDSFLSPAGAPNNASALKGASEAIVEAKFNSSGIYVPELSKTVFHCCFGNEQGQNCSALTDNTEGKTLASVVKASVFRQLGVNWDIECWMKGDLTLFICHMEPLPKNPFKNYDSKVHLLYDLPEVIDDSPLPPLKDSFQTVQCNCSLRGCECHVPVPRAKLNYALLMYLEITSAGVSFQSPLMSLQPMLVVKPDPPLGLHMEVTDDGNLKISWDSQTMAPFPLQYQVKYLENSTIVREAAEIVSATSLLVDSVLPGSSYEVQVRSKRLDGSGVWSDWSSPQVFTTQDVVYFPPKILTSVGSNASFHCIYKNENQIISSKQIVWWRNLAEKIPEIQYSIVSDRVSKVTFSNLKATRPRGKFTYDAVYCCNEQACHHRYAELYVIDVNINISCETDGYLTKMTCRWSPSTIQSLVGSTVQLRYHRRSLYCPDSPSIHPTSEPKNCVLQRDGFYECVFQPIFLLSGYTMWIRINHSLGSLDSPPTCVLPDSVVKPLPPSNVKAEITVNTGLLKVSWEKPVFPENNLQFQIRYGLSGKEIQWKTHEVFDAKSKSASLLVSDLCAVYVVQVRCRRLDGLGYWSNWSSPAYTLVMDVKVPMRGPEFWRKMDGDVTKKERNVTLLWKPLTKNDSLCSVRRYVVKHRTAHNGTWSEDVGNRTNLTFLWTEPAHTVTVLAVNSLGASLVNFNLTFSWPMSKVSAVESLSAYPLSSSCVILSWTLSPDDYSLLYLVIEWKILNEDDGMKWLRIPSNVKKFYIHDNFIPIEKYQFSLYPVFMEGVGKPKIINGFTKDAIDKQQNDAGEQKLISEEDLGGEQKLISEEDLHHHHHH
row,Binder,binding result
1,B1,no binding
2,B2,no binding
3,B3,no binding
4,B4,no binding
5,B5,no binding
6,B6,no binding
7,B7,no binding
8,B8,no binding
9,B9,no binding

# Target: rat LEPR extracellular domain expressed with a C-terminal myc-myc-hexahistidine tag (rLEPR.mmh) (rat, UniProt Q62959 22-839)
# Experiment: SPR, captured mAb, 25C and 37C
# rat LEPR extracellular domain expressed with a C-terminal myc-myc-hexahistidine tag (rLEPR.mmh), sequence (Q62959 other isoform, or with tags, fused parts or gaps): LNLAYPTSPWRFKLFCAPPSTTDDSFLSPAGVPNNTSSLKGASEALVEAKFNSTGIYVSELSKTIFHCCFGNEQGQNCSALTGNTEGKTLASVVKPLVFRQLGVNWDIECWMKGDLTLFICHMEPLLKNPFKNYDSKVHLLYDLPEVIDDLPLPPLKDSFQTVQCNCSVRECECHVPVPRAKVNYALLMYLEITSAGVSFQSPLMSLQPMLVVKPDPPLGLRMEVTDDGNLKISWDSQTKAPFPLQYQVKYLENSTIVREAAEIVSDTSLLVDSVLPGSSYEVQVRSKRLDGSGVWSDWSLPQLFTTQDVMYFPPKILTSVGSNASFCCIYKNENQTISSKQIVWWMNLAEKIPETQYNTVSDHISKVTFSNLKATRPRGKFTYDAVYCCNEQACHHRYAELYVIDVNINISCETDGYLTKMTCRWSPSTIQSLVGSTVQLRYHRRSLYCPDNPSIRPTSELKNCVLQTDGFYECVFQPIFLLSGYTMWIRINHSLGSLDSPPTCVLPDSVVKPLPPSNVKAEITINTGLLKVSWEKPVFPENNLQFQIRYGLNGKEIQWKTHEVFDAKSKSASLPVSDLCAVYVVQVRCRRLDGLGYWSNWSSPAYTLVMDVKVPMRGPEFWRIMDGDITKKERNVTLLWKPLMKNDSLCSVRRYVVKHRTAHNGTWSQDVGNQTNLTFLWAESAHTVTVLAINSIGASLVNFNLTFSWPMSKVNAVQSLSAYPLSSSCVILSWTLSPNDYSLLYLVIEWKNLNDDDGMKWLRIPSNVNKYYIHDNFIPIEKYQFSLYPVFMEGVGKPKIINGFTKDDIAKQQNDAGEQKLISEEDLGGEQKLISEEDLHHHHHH
row,Binder,binding result
1,B1,no binding
2,B2,no binding
3,B3,no binding
4,B4,no binding
5,B5,no binding
6,B6,no binding
7,B7,no binding
8,B8,no binding
9,B9,no binding

# Target: T4, preformed complex of hLEPR-MMH and human Leptin (human, UniProt P41159 22-167)
# T4 construct: also called hLEPR-MMH: human Leptin complex; Leptn;LEPR
# Experiment: SPR, mAb over preformed hLEPR-MMH:Leptin complex, 25C
# Experimental: The entire study was performed in 10 mM HEPES pH 7.4, 150 mM NaCl, 3 mM EDTA, and 0.05% v/v Surfactant Tween-20 (HBS-ET running buffer) at 25° C.
# T4 sequence (P41159 22-167 limits assumed, one chain of several): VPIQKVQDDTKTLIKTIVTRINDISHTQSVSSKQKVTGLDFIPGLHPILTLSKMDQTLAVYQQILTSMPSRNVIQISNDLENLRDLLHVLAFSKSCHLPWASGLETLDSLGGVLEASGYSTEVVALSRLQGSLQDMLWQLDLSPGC
row,Binder,200 nM mAb Bound (RU)
1,B5,81 RU
2,B6,90 RU
3,B8,92 RU
